Positions count from the first letter of the chain named.
T1: BARD1-V5 WT (BRCA1-Associated RING Domain protein 1) (UniProt Q99728 1-777)
T1 construct: BARD1 (BRCA1-Associated RING Domain protein 1), wild type; also called pcDNA6.2-BARD1-V5; source: HEK293FT, transiently co-transfected, in lysate
T1 sequence (looked up): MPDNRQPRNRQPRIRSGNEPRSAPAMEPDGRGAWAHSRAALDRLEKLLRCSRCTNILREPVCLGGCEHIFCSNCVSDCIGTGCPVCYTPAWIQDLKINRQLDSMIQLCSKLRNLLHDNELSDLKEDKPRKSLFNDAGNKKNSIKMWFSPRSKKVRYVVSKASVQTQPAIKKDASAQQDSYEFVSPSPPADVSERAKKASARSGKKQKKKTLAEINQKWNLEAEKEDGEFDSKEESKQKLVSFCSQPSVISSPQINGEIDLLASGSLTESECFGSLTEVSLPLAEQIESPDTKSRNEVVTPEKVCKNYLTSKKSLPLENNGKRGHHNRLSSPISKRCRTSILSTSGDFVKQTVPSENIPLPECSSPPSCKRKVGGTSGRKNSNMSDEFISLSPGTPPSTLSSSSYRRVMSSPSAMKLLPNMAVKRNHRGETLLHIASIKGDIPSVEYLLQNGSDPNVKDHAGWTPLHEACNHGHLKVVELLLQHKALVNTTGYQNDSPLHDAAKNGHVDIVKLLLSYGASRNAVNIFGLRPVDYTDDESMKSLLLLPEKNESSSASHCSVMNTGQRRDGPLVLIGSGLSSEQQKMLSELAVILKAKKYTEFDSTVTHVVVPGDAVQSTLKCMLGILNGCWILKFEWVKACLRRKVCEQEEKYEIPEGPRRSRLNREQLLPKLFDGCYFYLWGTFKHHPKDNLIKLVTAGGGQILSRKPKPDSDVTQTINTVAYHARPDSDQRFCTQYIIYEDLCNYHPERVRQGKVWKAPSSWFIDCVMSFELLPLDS

T2: Flag-PALB2 WT (Partner and Localiser of BRCA2) (UniProt Q86YC2 1-1186)
T2 construct: PALB2 (Partner and Localiser of BRCA2), wild type; printed both as Flag-PALB2 and as PALB2-Flag; also called PALB2-Flag; pDEST-FRT/T0-Flag-PALB2; source: HEK293FT, transiently co-transfected, in lysate
T2 sequence (looked up): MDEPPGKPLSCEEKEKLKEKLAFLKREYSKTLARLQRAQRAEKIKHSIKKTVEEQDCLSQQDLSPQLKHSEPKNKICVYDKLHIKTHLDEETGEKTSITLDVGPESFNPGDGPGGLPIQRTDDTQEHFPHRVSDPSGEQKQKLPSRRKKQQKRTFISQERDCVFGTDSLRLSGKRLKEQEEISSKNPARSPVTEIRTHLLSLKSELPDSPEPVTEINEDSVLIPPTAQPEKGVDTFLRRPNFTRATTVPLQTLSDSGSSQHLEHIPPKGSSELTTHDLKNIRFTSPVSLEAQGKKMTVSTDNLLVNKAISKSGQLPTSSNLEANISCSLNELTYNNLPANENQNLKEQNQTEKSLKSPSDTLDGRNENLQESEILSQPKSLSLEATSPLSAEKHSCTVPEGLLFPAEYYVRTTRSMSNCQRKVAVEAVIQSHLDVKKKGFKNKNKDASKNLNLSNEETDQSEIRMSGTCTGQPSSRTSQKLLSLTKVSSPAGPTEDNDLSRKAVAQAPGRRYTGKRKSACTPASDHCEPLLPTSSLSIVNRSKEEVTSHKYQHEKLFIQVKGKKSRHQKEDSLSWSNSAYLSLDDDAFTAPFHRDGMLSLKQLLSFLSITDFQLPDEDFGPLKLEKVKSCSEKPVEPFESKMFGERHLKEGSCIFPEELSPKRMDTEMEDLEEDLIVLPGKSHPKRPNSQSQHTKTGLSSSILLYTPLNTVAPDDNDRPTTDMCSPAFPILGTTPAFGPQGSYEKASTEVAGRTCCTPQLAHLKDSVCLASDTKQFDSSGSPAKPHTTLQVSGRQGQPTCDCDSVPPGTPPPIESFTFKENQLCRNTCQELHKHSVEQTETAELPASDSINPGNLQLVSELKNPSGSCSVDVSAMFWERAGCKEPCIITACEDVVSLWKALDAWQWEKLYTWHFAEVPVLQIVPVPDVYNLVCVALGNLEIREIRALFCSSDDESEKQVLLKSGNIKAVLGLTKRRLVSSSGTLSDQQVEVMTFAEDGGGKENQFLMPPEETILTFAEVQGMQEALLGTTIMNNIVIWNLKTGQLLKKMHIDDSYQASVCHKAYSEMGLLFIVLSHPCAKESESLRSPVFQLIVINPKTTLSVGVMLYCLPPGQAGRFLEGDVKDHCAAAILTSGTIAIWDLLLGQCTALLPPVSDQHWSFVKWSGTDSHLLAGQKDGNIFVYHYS

B1: BRCA1 p.Thr1256Ile (full-length, mCherry-tagged) (natural protein, human, UniProt P38398 1-1863, looked up)
chain: MDLSALRVEEVQNVINAMQKILECPICLELIKEPVSTKCDHIFCKFCMLKLLNQKKGPSQCPLCKNDITKRSLQESTRFSQLVEELLKIICAFQLDTGLEYANSYNFAKKENNSPEHLKDEVSIIQSMGYRNRAKRLLQSEPENPSLQETSLSVQLSNLGTVRTLRTKQRIQPQKTSVYIELGSDSSEDTVNKATYCSVGDQELLQITPQGTRDEISLDSAKKAACEFSETDVTNTEHHQPSNNDLNTTEKRAAERHPEKYQGSSVSNLHVEPCGTNTHASSLQHENSSLLLTKDRMNVEKAEFCNKSKQPGLARSQHNRWAGSKETCNDRRTPSTEKKVDLNADPLCERKEWNKQKLPCSENPRDTEDVPWITLNSSIQKVNEWFSRSDELLGSDDSHDGESESNAKVADVLDVLNEVDEYSGSSEKIDLLASDPHEALICKSERVHSKSVESNIEDKIFGKTYRKKASLPNLSHVTENLIIGAFVTEPQIIQERPLTNKLKRKRRPTSGLHPEDFIKKADLAVQKTPEMINQGTNQTEQNGQVMNITNSGHENKTKGDSIQNEKNPNPIESLEKESAFKTKAEPISSSISNMELELNIHNSKAPKKNRLRRKSSTRHIHALELVVSRNLSPPNCTELQIDSCSSSEEIKKKKYNQMPVRHSRNLQLMEGKEPATGAKKSNKPNEQTSKRHDSDTFPELKLTNAPGSFTKCSNTSELKEFVNPSLPREEKEEKLETVKVSNNAEDPKDLMLSGERVLQTERSVESSSISLVPGTDYGTQESISLLEVSTLGKAKTEPNKCVSQCAAFENPKGLIHGCSKDNRNDTEGFKYPLGHEVNHSRETSIEMEESELDAQYLQNTFKVSKRQSFAPFSNPGNAEEECATFSAHSGSLKKQSPKVTFECEQKEENQGKNESNIKPVQTVNITAGFPVVGQKDKPVDNAKCSIKGGSRFCLSSQFRGNETGLITPNKHGLLQNPYRIPPLFPIKSFVKTKCKKNLLEENFEEHSMSPEREMGNENIPSTVSTISRNNIRENVFKEASSSNINEVGSSTNEVGSSINEIGSSDENIQAELGRNRGPKLNAMLRLGVLQPEVYKQSLPGSNCKHPEIKKQEYEEVVQTVNTDFSPYLISDNLEQPMGSSHASQVCSETPDDLLDDGEIKEDTSFAENDIKESSAVFSKSVQKGELSRSPSPFTHTHLAQGYRRGAKKLESSEENLSSEDEELPCFQHLLFGKVNNIPSQSTRHSTVATECLSKNIEENLLSLKNSLNDCSNQVILAKASQEHHLSEETKCSASLFSSQCSELEDLTANTNTQDPFLIGSSKQMRHQSESQGVGLSDKELVSDDEERGTGLEENNQEEQSMDSNLGEAASGCESETSVSEDCSGLSSQSDILTTQQRDTMQHNLIKLQQEMAELEAVLEQHGSQPSNSYPSIISDSSALEDLRNPEQSTSEKAVLTSQKSSEYPISQNPEGLSADKFEVSADSSTSKNKEPGVERSSPSKCPSLDDRWYMHSCSGSLQNRNYPSQEELIKVVDVEEQQLEESGPHDLTETSYLPRQDLEGTPYLESGISLFSDDPESDPSEDRAPESARVGNIPSSTSALKVPQLKVAESAQSPAAAHTTDTAGYNAMEESVSREKPELTASTERVNKRMSMVVSGLTPEEFMLVYKFARKHHITLTNLITEETTHVVMKTDAEFVCERTLKYFLGIAGGKWVVSYFWVTQSIKERKMLNEHDFEVRGDVVNGRNHQGPKRARESQDRKIFRGLEICCYGPFTNMPTDQLEWMVQLCGASVVKELSSFTLGTGVHPIVVVQPDAWTEDNGFHAIGQMCEAPVVTREWVLDSVALYQCQELDTYLIPQIPHSHY
notes: BRCA1, human, full-length, rare germline missense variant introduced in the WT plasmid; Made by site-directed mutagenesis of the plasmid of m1; also called c.3767C > T; source: HEK293FT, transiently co-transfected, in lysate
B2: BRCA1 p.Cys39Tyr (full-length, mCherry-tagged; pathogenic control variant, RING domain) (natural protein, human, UniProt P38398 1-1863, looked up)
chain: B1 chain with C39Y, I1256T
notes: BRCA1, human, full-length, pathogenic control missense variant in the RING domain, introduced in the WT plasmid; Made by site-directed mutagenesis of the plasmid of m1; all other places and c.116G > A say p.Cys39Tyr; also called c.116G > A; source: HEK293FT, transiently co-transfected, in lysate
B3: BRCA1 p.Arg610Thr (full-length, mCherry-tagged) (natural protein, human, UniProt P38398 1-1863, looked up)
chain: B1 chain with R610T, I1256T
notes: BRCA1, human, full-length, rare germline missense variant introduced in the WT plasmid; Made by site-directed mutagenesis of the plasmid of m1; also called c.1829G > C; source: HEK293FT, transiently co-transfected, in lysate
B4: BRCA1 p.Arg612Gly (full-length, mCherry-tagged) (natural protein, human, UniProt P38398 1-1863, looked up)
chain: B1 chain with R612G, I1256T
notes: BRCA1, human, full-length, rare germline missense variant introduced in the WT plasmid; Made by site-directed mutagenesis of the plasmid of m1; also called c.1834A > G; source: HEK293FT, transiently co-transfected, in lysate
B5: BRCA1 p.Lys45Gln (full-length, mCherry-tagged; benign control variant, RING domain) (natural protein, human, UniProt P38398 1-1863, looked up)
chain: B1 chain with K45Q, I1256T
notes: BRCA1, human, full-length, benign control missense variant in the RING domain, introduced in the WT plasmid; Made by site-directed mutagenesis of the plasmid of m1; also called c.133A > C; source: HEK293FT, transiently co-transfected, in lysate
B6: BRCA1 p.Met1411Thr (full-length, mCherry-tagged; pathogenic control variant, coiled-coil domain) (natural protein, human, UniProt P38398 1-1863, looked up)
chain: B1 chain with I1256T, M1411T
notes: BRCA1, human, full-length, pathogenic control missense variant in the coiled-coil domain, introduced in the WT plasmid; Made by site-directed mutagenesis of the plasmid of m1; also called c.4232T > C; source: HEK293FT, transiently co-transfected, in lysate
B7: BRCA1 p.Val1378Ile (full-length, mCherry-tagged; benign control variant, coiled-coil domain) (natural protein, human, UniProt P38398 1-1863, looked up)
chain: B1 chain with I1256T, V1378I
notes: BRCA1, human, full-length, benign control missense variant in the coiled-coil domain, introduced in the WT plasmid; Made by site-directed mutagenesis of the plasmid of m1; also called c.4132G > A; source: HEK293FT, transiently co-transfected, in lysate
B8: BRCA1 p.Lys503Arg (full-length, mCherry-tagged) (natural protein, human, UniProt P38398 1-1863, looked up)
chain: B1 chain with K503R, I1256T
notes: BRCA1, human, full-length, rare germline missense variant introduced in the WT plasmid; Made by site-directed mutagenesis of the plasmid of m1; also called c.1508A > G; source: HEK293FT, transiently co-transfected, in lysate

These binders were tested against T1, BARD1-V5 WT (BRCA1-Associated RING …) (assay: co-IP; HEK293FT co-transfected with BRCA1 WT or variant and BARD1-V5; 2 mg lysate protein incubated 90 min at 4 °C with V5 antibody coupled to Dynabeads Protein G; non-denaturing elution; BRCA1 in the IP detected by anti-BRCA1 blot, normalised to the anti-V5 signal, % of WT). Details: partners not purified.

Binder | Co-IP BARD1 (% of WT)
B1 | 55 % of WT
B2 | 8 % of WT
B3 | 81 % of WT
B4 | 71 % of WT
B5 | 76 % of WT

Each binder was assayed against T2, Flag-PALB2 WT (Partner and Localiser of …) (assay: co-IP; HEK293FT co-transfected with BRCA1 WT or variant and Flag-PALB2; 2 mg lysate protein incubated 90 min at 4 °C with Flag antibody coupled to Dynabeads Protein G; non-denaturing elution; BRCA1 in the IP detected by anti-BRCA1 blot, normalised to the anti-Flag signal, % of WT). Details: partners not purified.

Binder | Co-IP PALB2 (% of WT)
B6 | 11 % of WT
B7 | 72 % of WT
B1 | 79 % of WT
B8 | 18 % of WT
B3 | 56 % of WT
B4 | 59 % of WT

Reference: PMC9957003, “Functional Analyses of Rare Germline Missense BRCA1 Variants Located within and outside Protein Domains with Known Functions” (Genes, 2023)
